# Measured values reported in the NTF2 design screens of Basanta et al. (2020).
# Experiment: protease stability score; higher = more stable; yeast display proteolysis, trypsin and chymotrypsin;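 also: relative to predicted unfolded state with 0 unfolded-like and 1 meaning tenfold more protease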
sequence,measurement,value
HDDEEIIKREIDFFLEVLLTGDWRHLNELLDPHARLEIGDKRFHGREAVIKEIRTFIERFGVDHSEIDTVNIQGEKAEYKFTLKVGDKRHELHITMTKINGRWYITEVKFS,protease stability score,1.79
HDDHESADKFIREEIEYQRTGDWHRFEELLDPDVRLEQGNYHAHGREEVSTIFLMHLTRVKNMRMEVTRMEIINGRLSLHLKLDFNGREFHFSTIVQKVNGKWIIKAEHFI,protease stability score,0.507
HDDQKESHEWAKLFEDWLQTGDEESILKQLDPHVRIEIGDKRNHGREELHRYEHEFWTKFGIDHIHIDDIRVQGEKVHLETTVIVNGRKFQQIIIVVFIDGVMQRLVIEDR,protease stability score,0.798
HDEDEESRNAVEEYWRVLHTGDEKRWHELADPNVRNEIDGRTYHGRESFRFLFHLHEEKFKNVKIELHSVNIQGDKIKMLIEIKYGDKNIHMIIIAQKIDGKWKNERIHVFHH,protease stability score,0.744
HDEEKHDREYVEEMLEVWLTGDFDRIMHLFDPNARQEVNGVDIVGRERLHEFNRRWEEDMGFDHSHTHHVEVVNGRVHSDTRVHFNGREMETHLDLRVVNGRIKSIRVSYN,protease stability score,0.094
HDEERDSKIASSIMVETWKTGNEHLMERMFDPHTRSHVGDKEIHGMEEFIRWLYELLRKIKNARFTVEDTDLINGVVVVITRLHVGDKDFLLTFFVEKFNGRWHLRSFEMK,protease stability score,0.772
HDEERELTIVSERIIKIFETGDWEELHKMADPRVKVIVNGRETHGMERYVKHLEQIRTILTNIHLHDVDLQGDFLHIDLEARGRILVNGRDTTFNWELKITIDKFDGRWRMKRINVN,protease stability score,2.16
HDEEREVHEWIKLIEHHLRTGDEDAVRKLVDPTVRNDINGVDVVGRREDVERLHQADHIDIELKHVEIQGDKLHIDGVLILDFNGRHFYFRMKIIASKYNGVWKIKEKRVH,protease stability score,0.999
HDHDKHLDRLEELMLRWWKTGDWDKILKYADPHTRSDVNGKEYHGRESMVRAFEHVLKMLGIDVVYDQSHHLQGEKAKFHQESRVGDKRVEVIIIITIVDGRVTEFEVEVHHN,protease stability score,0.722
HDKEHLSEYLLDLTEYLIRTGDFKLMLKMADPHVRNHIIIGEFELEYHGWHVYIHWLEKVLRRFGVDHVHVTHRNAQGDKVEMDTHLEVNGRRHDVDQHWVYINGRIEHVRFRIR,protease stability score,0.794
HDKEKEDKEWIKRLLDTIETGDPEQFSHLADPNVKAEFENHDSVGMEEVFKILEHLRIDHVRMKDMRIQGDWVHLITEMDGTINGKKIILKSRIIALKVNGRWVLTSTSLK,protease stability score,1.42
HDLEETVRDMIHLLMTFVETGDEDSVHRLIDPHVRVEVGDKLTHGRQWVHLLIKRADVLEIRIEDMRIVGDKALIVSKYHIRIDGVFIVYNIDIYAEKIDGRWVTTEIKVD,protease stability score,1.71
HDLEKFLDHFFEKLMKELETGDEQSWRRLADPRARLHINGKDFHGREFEHELRNKWGVSRVEEKLDSRDVIGNKLILDGSLSVNGKEIKAILFVQKVDGKWEFKEIEVH,protease stability score,1.34
HDLEKLVKFWYELWLRLLLTGDEEIFSHLADPNARLEVDGVEFVGREQVLKDLKRRMEEMRLTSMIITHVDWQGEKNRTEGITHGRINGVDITSETHLVLVIVNGRIRSIRIEIR,protease stability score,1.54
HDMEERSKHVHHIILRSLRTGDEDAYERLADPDTRLHVGDKNIHGRESIRNIWREILERIPNMRIELELEDSEIVGDYIYLKINLRMNFDGREVEHEIRIVSLKINGRWVEKSVHFR,protease stability score,0.591
HDQDESAKWVIEVLIRASYTGDFDMFIKYFDPNAKSLIDGKTFHGREDLKRHMDRFDHITHVRFHLRDRKMVGDKLIIHGQLEVHGYQGDWEIHMTRDVHIILRKVDGRWHIEELRLE,protease stability score,2.18
HDREKIAITFLKFLIHWHLTGNEDHLRENIDPHVRIRIHIDGKNNHLVGMEDWYKWVREELERADHLELRLDDVDVQGDKLHSDITNIIRIDGKTIVRKVHVHLDVVNGQVKSIEIEIR,protease stability score,2.54
HDREKLMEELVKNWIHLLKTGDEDQLHRLLDPHAKWDINGRELHGMEHINRRISEWRIEFNERHVEVIGEKIHIEGDLRVEIDGRRDEFHSEIELVIVNGRVKEIIVREG,protease stability score,0.895
HDRKREIDHVLKLWINHFKTGDEDFHERNMDPHVRLHQGNYETHGREEVKKFLKRLFDEFGADHIHIRDYRIDVQGDKITIVMEVEIRVGNYRIDIEFILYVAKVDGKWHVHHYEIRNH,protease stability score,1.06
HDRNEIIREALRILIHSILTGDEDHLREFADPHVKSDINGQEFHGREVFFMWLLHMRIQTVTIKHVDVQGEKARVYSSIHGDVDGQRTEYHTEIFSQKVNGRWIIRTIRVE,protease stability score,1.16
HEDDELLRQNVKVLLDMVETGDEHTLENMLDPHVRFEAENHHHHGRENLIRALKELLTRLGVKHWRSFEVERIDIQGDFIFLDTVFIMEVDGRKRKIKIHIVARKINGRWLIESIRLD,protease stability score,1.48
HEDDEMKKKWFEEWERRIHTGDEEEINKLADPHVRLEIGDKTRHGREEFTRYLWEFLYEFGANHVEIRYEEIRIINGVVHIRSRIHIHVDGRHIHLETHLIVFKFDGQWRLHTLHYK,protease stability score,0.872
HEDDHAVRKTIEDLLRSITTGDFELYSKLADPNTRFNIDGVNDVGMEIWVEKAIQHGWKVRHFHIRDVEVQGDKIDVDLKIDEDVNGRRIDIHVLLIIRKIDGRWILESVEHV,protease stability score,1.64
HEDDHQAERITHITMHAILTGDWRRMEELLDPHYRIEFENHENIGRERVNKVLIDLGIRNEIEIKRIRFQGDFVEIDGKLKIDVGDKHIEIKVRLFYVKINGRWFHHHVDLR,protease stability score,0.835
HEDDRIVQEHWKRLSEAWLTGDEERAKKNADPNTREVINGKELHGREEVTRLYREIRRSIEHVEIRDSRIQGDKLLIDVNMVISVIIGDKEFRIEVRVNVIMIKFDGVWHLETVHFH,protease stability score,0.187
HEDEDILREALKTLRHSIQTGDEDLLRELMDPNVRLETEHERLHGWEYVSKFMMDLYKRYDHMEYTVHDYKVYGDFLRVDVQLDVKQGEKDDVISTHMLALKFDGKWHIKKIIIE,protease stability score,1.56
HEDEDLLEELARKYKHHLETGDEHIIRRLVDPHVRIEQGEKKLIGREEFLRILTELLRSWGVTRFEFRIEDFRLQGDKAHMRGSVEVGDFHHDVEIVSRKIDGRWVITHYHEI,protease stability score,0.118
HEDEEEMKKFIHRWENDLRTGDEESHRRLADPNTLLVVNGRRVHGMEAVLHIVREMRLHEVYIDDIRIINGRAHTELTVKGEIDGVKHWSHTHIHVTKVNGQWHIDTIRIL,protease stability score,0.663
HEDEEEQRLANEIFHKMIWTGDEERLKDLMDPHVRIDVNGREVHGMEEWLEHFLQFKNMKFRVHFRENRIIDGVARSRTELRIIFDGREYRIDLIVIAQKINGRWILRSIEIR,protease stability score,1.34
HEDEEHALKLTMDFLRWIYTGDEDTLNKYADPNVRLDIGDKVFHGMEFINKHMKELRFHRIHVKRFEAHVVDGKLRSHMDVRIDGNVDGRRRETDVELIFFWEKIDGRWVNTSIIIHHH,protease stability score,1.27
HEDEEIIERILREFLHYQNTGDEDELRKLADPNVRVIQGDKHFVGREEFRRWVHEHLSQVDHVELEIEDMRIVGDFVEIRGKLHNKAEGRSIKEEVRLVLFKFDGRWTLHDVRVH,protease stability score,2.09
HEDEEISQNMMETMLRIIHTGDWHRFTELFDPHVRIEVNIGDKHLESVGREEARKWLERFKNRRTEIRDAKVRVQGDKVEIRIDGNVNVDGKEKHVEIILYIEKIDGRWLVHSVIIIIE,protease stability score,2.13
HEDEEIVKTFAKIRTELERTGDWETIMRLLDPHVRMDIDGVRVHGMEEVVRHIREFEEKFGVTNVQSRFRDVRIIGDKVDIHSQVHINGVEKNLHIHVEKFNGKWVITEIKIE,protease stability score,1.28
HEDEEKVKNMVRHEIQALQTGDWDHWLNLADPHVKLYIDGRINHGRHVIRFLVERFDHFRIDHYEVRSINHVDGRVRVNTQLHGQETINGVHEKHTVEVEMTIIKVNGRWYIEHLELE,protease stability score,1.2
HEDEELMKELLKRWLNMLETGDWQNLAHYADPHVRLEFDGREIHGRTEVYRVLVEFHDKIKGMTYILKHSFYVGDKIHIKGSIRIGDKEYDTEIHIIIVDGRLKEVRVEHR,protease stability score,1.98
HEDEELSEKWLEDILRDHETGNEHRLRELFDPDARSHVGDKKIIGREDWSRALKEFIEKFPGVRIEIRHHENDIVGDKVRLDVTIILNFNGVEHEMKVTLILRKYNGRWRIREIRIR,protease stability score,1.25
HEDEELSEWMEREMIDIMRTGDEHRFLRMADPNTRFEFNGKDIHGRERVLDVLEFLGIDHMEFEDSKVRLYDGRVEVRLEGRINVGDKQSESRITIKAEKINGRWVLHEVSIEHH,protease stability score,0.821
HEDEELSRKAVELMLELIMTGDEDTIRSLADPDTRIEINGRHHHGRHLMVEFMREWFRRYPNVQLDVHSLDIDLFNGRVLIQINLEIRIGDKHHRVRINIHADKVDGRWRLKEVRIEIK,protease stability score,1.5
HEDEEMLHRLAELVEELFRTGDEEMHDHLMDPHARINIDGRDLHGRENMRILWQKLGIERVHVEFHDVKAIGDKASVHTFLEVNGVKVEILIRSEKINGRWVITQINIVFH,protease stability score,0.386
HEDEEMSQRMLDELMRFSRTGDWQRSAELADPHVRIIIGDKHLHGMEHWSELLKRIDHSHFHLRHVDIFENHIRLQGELRLHINGVEHRHEVIIKAHKVDGQWILESVEIR,protease stability score,0.768
HEDEESMEHSIRRLIQAIETGDFHELTELADPHVKLTIGDKEYIGREQWEKTLRDLGIDHFDVKRSKLIGDYARVDGKVNVNGQFRDTTVIMKKVDGKWLIRSWHVH,protease stability score,1.91
HEDEEWAEKMVREFLEATRTGDFESTLQLADPHVRFIINGKDIHGMEDWQEHLEHIRIQYHDIRIEHREVIGDKIYVKTRIDVTIHINGRKHRTVLDVEFIIHKVNGRWIIRELEIR,protease stability score,1.61
HEDEHELRHAVELFIWLIHTGDWHTELRLADPDVRHEVNGVENHGRELMLEDLQRIKNIRFHVRRVEIRVYGDKADLHIHGRKIVDGRHKELEIHVHIRKVNGKWLLHEVEVNIR,protease stability score,1.59
HEDEHKWERAFRIWIHALITGDEETTNELMDPNTRLNFNGVDFIGREDMIELIRHIRIHREHITHVEIRTFNGVLHVHMHVRRDGNINGQRRNTDVEIHIVIFKVNGRWVLHSTTIVVN,protease stability score,2.23
HEDEHLMKRVAELIFRLLVTGDEDRMRDLLDPTTRMDINGKEFHGRDQVIEVWRRLIDHIRIEEVHLEDHDIYGDKVRWHMRIRTRQGDKQLHLETRFTADKFNGRWELQTVIFK,protease stability score,1.64
HEDEHLSRRFAELVLTYLETGDEDSILEMADPHVRTELIIGDKTFRYIGRENLERWLHEVLRKFKNLRFVPKRLHIQGDKVIMRGYVIFDGRTHETEMIWIVINGRIHAVLHHEH,protease stability score,1.81
HEDEHQAEHLLEAVFHIFLTGDWRSLHELVDPNVRFDVNGRRTHGREDLIRFSRELRIHDVRFHRVKLDVYDGRVEMRIDGRIDGEINGRRTDVRSIIEIEFIKFNGQWRVESISLNFH,protease stability score,1.44
HEDEHYMQRIAEDILKSFLTGDFDHIYRMADPHVKLIVGDKESIGRDDMETMLRIWLEILGADHLEVKDLKTRLVGDKIEVNVDNRIQIGDKLINVKIEIIFEKVNGRWKVSRITLKLR,protease stability score,1.5
HEDEKEAEDAVREFLHNVSTGDEERMLELMDPNARLIYNGREYHGRELITHLIRELGVKVVRWRHLEVQGEKVHVDLRDTVGDKTIKTHLIFHKINGKWKVDEVKFD,protease stability score,2.26
HEDEKIARELTELLLHHFHTGNEESLSKLMDPNVRVIAENHELHGMEKKIEKNRKYLKDLGVDHFSFELRHLDLQGDKARVEGIEHWTINGQHHERHMVLHIVVVNGRLQESSIEIR,protease stability score,0.929
